Assay results reported in paper PMC9646764 (2022).

B1: mTFPI-Fc (Fc-tagged mouse TFPI) (Fc fusion)
chain: LSEEADDTDSELGSMKPLHTFCAMKADDGPCKAMIRSYFFNMYTHQCEEFIYGGCEGNENRFDTLEECKKTCIPGYEKTAVKAASGAERPDFCFLEEDPGLCRGYMKRYLYNNQTKQCERFVYGGCLGNRNNFETLDECKKICENPVHSPSPVNEVQMSDYVTDGNTVTDRSTVNNIVVPQSPKVPRRR
B2: Chicken TFPI-Fc (Fc fusion)
chain: TDDSDGEEEDVLGVPLPPLKLGHSDCALKADEGPCKAIHVRFYFNIQSRECEIFEYGGCHGNANNFLTLEECQNKCVVTELPLEVMLAKNEREKPNFCYQEKDPGICRGFFSRYFYNKETKICEIFKYGGCLGNQNNFKSLEECQTTCQGNPNLLSVAPDEEHPNHMNSSSPEEERNQFPGIVE

Assays:
Test in all cases: BLI
TcdB10.1_(1285-1804) = TcdB10.1_(1285-1804) ( | Clostridioides difficile)
Chicken TFPI-Fc [1] = biological target: B2
[2] = biological target: B1
[3] = biological target: TFPI-Fc (human IgG-Fc-tagged TFPI without the GPI anchor) (human, UniProt P10646 29-209)
Chicken TFPI-Fc [4] = biological target: B2

TFPI-Fc (human IgG-Fc-tagged TFPI without the GPI anchor), sequence (P10646 29-209): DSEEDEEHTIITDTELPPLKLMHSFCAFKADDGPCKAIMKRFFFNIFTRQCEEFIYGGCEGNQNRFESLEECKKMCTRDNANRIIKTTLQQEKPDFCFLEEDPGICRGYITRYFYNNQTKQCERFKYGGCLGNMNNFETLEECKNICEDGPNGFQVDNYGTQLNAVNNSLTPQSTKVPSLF

Binder | Kd (TcdB10.1_(1285-1804)) | koff (TcdB10.1_(1285-1804)) | koff (Chicken TFPI-Fc [1]) | koff [2] | koff [3] | Kd (Chicken TFPI-Fc [4])
B1 | 465 nM | 0.00637 s⁻¹ |  |  |  | 
TcdB4.2_(1286-1805) (domain or fragment) TNIRISLDSNTRSFIVPVITTEYIREKLSYSFYGSGGTYALSLSQYNMNINIELNENDTWVIDVDNVVRDVTIESDKIKKGDLIENILSKLSIEDNKIILDNHEINFSGTLNGGNGFVSLTFSILEGINAVIEVDLLSKSYKVLISGELKTLMANSNSVQQKIDYIGLNSELQKNIPYSFMDDEGKENGFINCFTKEGLFVSELSDVVLIIKVYMDNSKPPFGYYSNDLKDVKVITKDDVIIITGYYLKDDIKISLSFTIQDKNTIKLNGVYLDENGVAEILKFMNKKGSTNTSDSLMSFLESMNIKSIFIKSLKSNAKLILDTNFIISGTTFIGQFEFICDKDNNIQPYFIKFNTLETKYTLYVGNRQNMIVEPNYNLDDSGDISSTVINFSQKYLYGIDSCVNKVVISPGIYTDEINITPVHEANNTYPEVIVLDTNYISEKINININDLSIRYVWSNDGSDFILMSTDEENKVSQVKIRFTNVFKGNTISDKISFNFSDKQDISINKIISTFTPSYY |  |  | 0.00885 s⁻¹ | 0.00344 s⁻¹ | 0.00708 s⁻¹ | 336 nM
B2 | 70.5 nM | 0.006 s⁻¹ |  |  |  | 
